According to PMC3892207 (Journal of the American Chemical Society, 2013):

B1: CP-Ser (αβ heterodimer of S100A8(C42S) and S100A9(C3S)) (complex, human)
chain 1: MLTELEKALNSIIDVYHKYSLIKGNFHAVYRDDLKKLLETESPQYIRKKGADVWFKELDINTDGAVNFQEFLILVIKMGVAAHKKSHEESHKE
chain 2: MTSKMSQLERNIETIINTFHQYSVKLGHPDTLNQGEFKELVRKDLQNFLKKENKNEKVIEHIMEDLDTNADKQLSFEEFIMLMARLTWASHEKMHEGDEGPGHHHKPGLGEGTP
B2: CP-Ser-AHA(K106H) (αβ heterodimer) (complex, human)
chain 1: MLTELEKALNSIIDVYHKYSLIKGNFHAVYRDDLKKLLETESPQYIRKKGADVWFKELDINTDGAVNFQEFLILVIKMGVAAHKKSHEESHKE
chain 2: MTSKMSQLERNIETIINTFHQYSVKLGHPDTLNQGEFKELVRKDLQNFLKKENKNEKVIEHIMEDLDTNADKQLSFEEFIMLMARLTWASHEKMHEGDEGPGAHAHPGLGEGTP
B3: CP-Ser-AAA(L109H)(E111H) (αβ heterodimer) (complex, human)
chain 1: MLTELEKALNSIIDVYHKYSLIKGNFHAVYRDDLKKLLETESPQYIRKKGADVWFKELDINTDGAVNFQEFLILVIKMGVAAHKKSHEESHKE
chain 2: MTSKMSQLERNIETIINTFHQYSVKLGHPDTLNQGEFKELVRKDLQNFLKKENKNEKVIEHIMEDLDTNADKQLSFEEFIMLMARLTWASHEKMHEGDEGPGAAAKPGHGHGTP
B4: CP-Ser(E111A) (αβ heterodimer) (complex, human)
chain 1: MLTELEKALNSIIDVYHKYSLIKGNFHAVYRDDLKKLLETESPQYIRKKGADVWFKELDINTDGAVNFQEFLILVIKMGVAAHKKSHEESHKE
chain 2: MTSKMSQLERNIETIINTFHQYSVKLGHPDTLNQGEFKELVRKDLQNFLKKENKNEKVIEHIMEDLDTNADKQLSFEEFIMLMARLTWASHEKMHEGDEGPGHHHKPGLGAGTP
B5: CP-Ser-AAE (αβ heterodimer) (complex, human)
chain 1: MLTELEKALNSIIDVYHKYSLIKGNFHAVYRDDLKKLLETESPQYIRKKGADVWFKELDINTDGAVNFQEFLILVIKMGVAAHKKSHEESHKE
chain 2: MTSKMSQLERNIETIINTFHQYSVKLGHPDTLNQGEFKELVRKDLQNFLKKENKNEKVIEHIMEDLDTNADKQLSFEEFIMLMARLTWASHEKMHEGDEGPGAAEKPGLGEGTP
B6: CP-Ser(E99A) (αβ heterodimer) (complex, human)
chain 1: MLTELEKALNSIIDVYHKYSLIKGNFHAVYRDDLKKLLETESPQYIRKKGADVWFKELDINTDGAVNFQEFLILVIKMGVAAHKKSHEESHKE
chain 2: MTSKMSQLERNIETIINTFHQYSVKLGHPDTLNQGEFKELVRKDLQNFLKKENKNEKVIEHIMEDLDTNADKQLSFEEFIMLMARLTWASHEKMHEGDAGPGHHHKPGLGEGTP
B7: CP-Ser(D98A) (αβ heterodimer) (complex, human)
chain 1: MLTELEKALNSIIDVYHKYSLIKGNFHAVYRDDLKKLLETESPQYIRKKGADVWFKELDINTDGAVNFQEFLILVIKMGVAAHKKSHEESHKE
chain 2: MTSKMSQLERNIETIINTFHQYSVKLGHPDTLNQGEFKELVRKDLQNFLKKENKNEKVIEHIMEDLDTNADKQLSFEEFIMLMARLTWASHEKMHEGAEGPGHHHKPGLGEGTP
B8: CP-Ser(H105A) (αβ heterodimer) (complex, human)
chain 1: MLTELEKALNSIIDVYHKYSLIKGNFHAVYRDDLKKLLETESPQYIRKKGADVWFKELDINTDGAVNFQEFLILVIKMGVAAHKKSHEESHKE
chain 2: MTSKMSQLERNIETIINTFHQYSVKLGHPDTLNQGEFKELVRKDLQNFLKKENKNEKVIEHIMEDLDTNADKQLSFEEFIMLMARLTWASHEKMHEGDEGPGHHAKPGLGEGTP
B9: CP-Ser-mT (αβ heterodimer) (complex, human | mouse)
chain 1: MLTELEKALNSIIDVYHKYSLIKGNFHAVYRDDLKKLLETESPQYIRKKGADVWFKELDINTDGAVNFQEFLILVIKMGVAAHKKSHEESHKE
chain 2: MTSKMSQLERNIETIINTFHQYSVKLGHPDTLNQGEFKELVRKDLQNFLKKENKNEKVIEHIMEDLDTNADKQLSFEEFIMLMARLTWASHEKMHENNPRGHGHSHGKGCGK
B10: CP-Ser(K106A) (αβ heterodimer) (complex, human)
chain 1: MLTELEKALNSIIDVYHKYSLIKGNFHAVYRDDLKKLLETESPQYIRKKGADVWFKELDINTDGAVNFQEFLILVIKMGVAAHKKSHEESHKE
chain 2: MTSKMSQLERNIETIINTFHQYSVKLGHPDTLNQGEFKELVRKDLQNFLKKENKNEKVIEHIMEDLDTNADKQLSFEEFIMLMARLTWASHEKMHEGDEGPGHHHAPGLGEGTP
B11: CP-Ser(H103A) (αβ heterodimer) (complex, human)
chain 1: MLTELEKALNSIIDVYHKYSLIKGNFHAVYRDDLKKLLETESPQYIRKKGADVWFKELDINTDGAVNFQEFLILVIKMGVAAHKKSHEESHKE
chain 2: MTSKMSQLERNIETIINTFHQYSVKLGHPDTLNQGEFKELVRKDLQNFLKKENKNEKVIEHIMEDLDTNADKQLSFEEFIMLMARLTWASHEKMHEGDEGPGAHHKPGLGEGTP
B12: CP-Ser-AAA(K106H) (αβ heterodimer) (complex, human)
chain 1: MLTELEKALNSIIDVYHKYSLIKGNFHAVYRDDLKKLLETESPQYIRKKGADVWFKELDINTDGAVNFQEFLILVIKMGVAAHKKSHEESHKE
chain 2: MTSKMSQLERNIETIINTFHQYSVKLGHPDTLNQGEFKELVRKDLQNFLKKENKNEKVIEHIMEDLDTNADKQLSFEEFIMLMARLTWASHEKMHEGDEGPGAAAHPGLGEGTP
B13: CP-Ser(E96A) (αβ heterodimer) (complex, human)
chain 1: MLTELEKALNSIIDVYHKYSLIKGNFHAVYRDDLKKLLETESPQYIRKKGADVWFKELDINTDGAVNFQEFLILVIKMGVAAHKKSHEESHKE
chain 2: MTSKMSQLERNIETIINTFHQYSVKLGHPDTLNQGEFKELVRKDLQNFLKKENKNEKVIEHIMEDLDTNADKQLSFEEFIMLMARLTWASHEKMHAGDEGPGHHHKPGLGEGTP
B14: CP-Ser-AAA (αβ heterodimer) (complex, human)
chain 1: MLTELEKALNSIIDVYHKYSLIKGNFHAVYRDDLKKLLETESPQYIRKKGADVWFKELDINTDGAVNFQEFLILVIKMGVAAHKKSHEESHKE
chain 2: MTSKMSQLERNIETIINTFHQYSVKLGHPDTLNQGEFKELVRKDLQNFLKKENKNEKVIEHIMEDLDTNADKQLSFEEFIMLMARLTWASHEKMHEGDEGPGAAAKPGLGEGTP
B15: CP-Ser-AHA (αβ heterodimer) (complex, human)
chain 1: MLTELEKALNSIIDVYHKYSLIKGNFHAVYRDDLKKLLETESPQYIRKKGADVWFKELDINTDGAVNFQEFLILVIKMGVAAHKKSHEESHKE
chain 2: MTSKMSQLERNIETIINTFHQYSVKLGHPDTLNQGEFKELVRKDLQNFLKKENKNEKVIEHIMEDLDTNADKQLSFEEFIMLMARLTWASHEKMHEGDEGPGAHAKPGLGEGTP
B16: CP-Ser-Δ101 (αβ heterodimer) (complex, human)
chain 1: MLTELEKALNSIIDVYHKYSLIKGNFHAVYRDDLKKLLETESPQYIRKKGADVWFKELDINTDGAVNFQEFLILVIKMGVAAHKKSHEESHKE
chain 2: MTSKMSQLERNIETIINTFHQYSVKLGHPDTLNQGEFKELVRKDLQNFLKKENKNEKVIEHIMEDLDTNADKQLSFEEFIMLMARLTWASHEKMHEGDEGP
B17: CP-Ser(H104A) (αβ heterodimer) (complex, human)
chain 1: MLTELEKALNSIIDVYHKYSLIKGNFHAVYRDDLKKLLETESPQYIRKKGADVWFKELDINTDGAVNFQEFLILVIKMGVAAHKKSHEESHKE
chain 2: MTSKMSQLERNIETIINTFHQYSVKLGHPDTLNQGEFKELVRKDLQNFLKKENKNEKVIEHIMEDLDTNADKQLSFEEFIMLMARLTWASHEKMHEGDEGPGHAHKPGLGEGTP

Biological target: the molecule itself
Assay: SEC

Binding result, binds:
B1
B2
B3
B4
B5
B6
B7
B8
B9
B10
B11
B12
B13
B14
B15
B16
B17
